From IntAct's records for PubMed 27178753

B1: Focal adhesion kinase 1 (Homo sapiens), Q05397 (parent)
chain: MAAAYLDPNLNHTPNSSTKTHLGTGMERSPGAMERVLKVFHYFESNSEPTTWASIIRHGDATDVRGIIQKIVDSHKVKHVACYGFRLSHLRSEEVHWLHVDMGVSSVREKYELAHPPEEWKYELRIRYLPKGFLNQFTEDKPTLNFFYQQVKSDYMLEIADQVDQEIALKLGCLEIRRSYWEMRGNALEKKSNYEVLEKDVGLKRFFPKSLLDSVKAKTLRKLIQQTFRQFANLNREESILKFFEILSPVYRFDKECFKCALGSSWIISVELAIGPEEGISYLTDKGCNPTHLADFTQVQTIQYSNSEDKDRKGMLQLKIAGAPEPLTVTAPSLTIAENMADLIDGYCRLVNGTSQSFIIRPQKEGERALPSIPKLANSEKQGMRTHAVSVSETDDYAEIIDEEDTYTMPSTRDYEIQRERIELGRCIGEGQFGDVHQGIYMSPENPALAVAIKTCKNCTSDSVREKFLQEALTMRQFDHPHIVKLIGVITENPVWIIMELCTLGELRSFLQVRKYSLDLASLILYAYQLSTALAYLESKRFVHRDIAARNVLVSSNDCVKLGDFGLSRYMEDSTYYKASKGKLPIKWMAPESINFRRFTSASDVWMFGVCMWEILMHGVKPFQGVKNNDVIGRIENGERLPMPPNCPPTLYSLMTKCWAYDPSRRPRFTELKAQLSTILEEEKAQQEERMRMESRRQATVSWDSGGSDEAPPKPSRPGYPSPRSSEGFYPSPQHMVQTNHYQVSGYPGSHGITAMAGSIYPGQASLLDQTDSWNHRPQEIAMWQPNVEDSTVLDLRGIGQVLPTHLMEERLIRQQQEMEEDQRWLEKEERFLKPDVRLSRGSIDREDGSLQGPIGNQHIYQPVGKPDPAAPPKKPPRPGAPGHLGSLASLSSPADSYNEGVKLQPQEISPPPTANLDRSNDKVYENVTGLVKAVIEMSSKIQPAPPEEYVPMVKEVGLALRTLLATVDETIPLLPASTHREIEMAQKLLNSDLGELINKMKLAQQYVMTSLQQEYKKQMLTAAHALAVDAKNLLDVIDQARLKMLGQTRPH

Variants of: B1
Details: with itb4_human ITGB4, P16144
itb4_human ITGB4, P16144, sequence (P16144 whole entry): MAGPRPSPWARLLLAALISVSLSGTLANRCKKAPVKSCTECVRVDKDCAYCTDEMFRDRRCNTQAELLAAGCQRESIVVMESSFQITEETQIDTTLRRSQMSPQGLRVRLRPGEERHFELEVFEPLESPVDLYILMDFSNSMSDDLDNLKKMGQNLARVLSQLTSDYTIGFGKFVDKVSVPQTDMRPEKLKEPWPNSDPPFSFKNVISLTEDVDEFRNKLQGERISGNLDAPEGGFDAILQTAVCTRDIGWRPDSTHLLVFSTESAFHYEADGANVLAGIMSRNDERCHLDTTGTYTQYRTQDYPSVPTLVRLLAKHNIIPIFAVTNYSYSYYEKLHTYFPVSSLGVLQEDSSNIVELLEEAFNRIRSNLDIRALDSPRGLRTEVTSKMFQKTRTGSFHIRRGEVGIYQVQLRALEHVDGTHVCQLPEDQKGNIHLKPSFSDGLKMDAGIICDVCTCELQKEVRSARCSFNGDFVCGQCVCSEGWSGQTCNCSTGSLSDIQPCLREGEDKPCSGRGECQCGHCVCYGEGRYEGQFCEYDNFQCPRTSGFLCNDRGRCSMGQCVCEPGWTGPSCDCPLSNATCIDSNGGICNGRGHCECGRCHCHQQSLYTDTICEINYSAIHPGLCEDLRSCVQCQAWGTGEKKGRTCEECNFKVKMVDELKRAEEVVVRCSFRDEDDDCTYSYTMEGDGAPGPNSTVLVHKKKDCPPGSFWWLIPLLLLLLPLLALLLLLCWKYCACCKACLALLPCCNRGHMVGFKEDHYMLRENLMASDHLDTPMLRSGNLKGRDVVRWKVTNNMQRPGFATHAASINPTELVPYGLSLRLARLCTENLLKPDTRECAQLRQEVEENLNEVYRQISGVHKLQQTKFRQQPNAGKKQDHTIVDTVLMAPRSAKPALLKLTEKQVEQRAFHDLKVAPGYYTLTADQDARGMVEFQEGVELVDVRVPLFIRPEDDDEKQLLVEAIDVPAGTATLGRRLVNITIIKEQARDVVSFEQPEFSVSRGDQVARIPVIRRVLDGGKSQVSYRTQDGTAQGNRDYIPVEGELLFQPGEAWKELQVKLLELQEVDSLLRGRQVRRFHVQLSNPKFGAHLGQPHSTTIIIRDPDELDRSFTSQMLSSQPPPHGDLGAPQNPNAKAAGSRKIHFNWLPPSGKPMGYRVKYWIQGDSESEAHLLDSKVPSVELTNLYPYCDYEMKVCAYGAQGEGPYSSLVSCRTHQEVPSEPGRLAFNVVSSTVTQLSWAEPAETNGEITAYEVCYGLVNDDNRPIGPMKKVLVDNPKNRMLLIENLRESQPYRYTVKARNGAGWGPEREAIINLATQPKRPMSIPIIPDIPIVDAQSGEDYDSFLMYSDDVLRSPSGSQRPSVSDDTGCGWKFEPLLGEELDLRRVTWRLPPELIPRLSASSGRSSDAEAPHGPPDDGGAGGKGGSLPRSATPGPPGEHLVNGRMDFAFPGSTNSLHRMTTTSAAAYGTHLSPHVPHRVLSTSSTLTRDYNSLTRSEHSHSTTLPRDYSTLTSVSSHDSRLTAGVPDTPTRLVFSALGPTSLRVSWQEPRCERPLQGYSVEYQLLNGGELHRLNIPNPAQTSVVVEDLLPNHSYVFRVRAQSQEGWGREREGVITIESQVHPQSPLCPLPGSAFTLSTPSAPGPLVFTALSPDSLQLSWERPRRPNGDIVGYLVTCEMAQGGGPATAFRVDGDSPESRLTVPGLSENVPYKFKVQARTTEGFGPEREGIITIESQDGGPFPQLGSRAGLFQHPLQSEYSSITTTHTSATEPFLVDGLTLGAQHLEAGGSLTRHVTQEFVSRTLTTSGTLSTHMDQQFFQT

Row | Variant | effect of a mutation on the interaction
1 | E380A;K381A;Q382A | disrupting interaction

Variants of: B1
Details: with itb4_human ITGB4, P16144
Remark: another data set of the same source

Row | Variant | effect of a mutation on the interaction
2 | R385A;T386A | decreasing interaction
